± gives the standard deviation of the averaged measurements.
System: Saccharomyces cerevisiae
Experiment: protein stability index of tFT-peptide fusion (C-terminal peptide) (PSI (0-1 scale)); higher = more stable (slower turnover)
Details: temperature: 30 C
Method: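 MPS profiling in S. cerevisiae of the yeast C-terminome library: the last 12 aa of each annotated ORF are fused to the C-terminus of a sfGFP-mCherry timer, after a GGGS linker. Cells are FACS-sorted into 8 mCherry/sfGFP bins and deep-sequenced. PSI runs from 0 (unstable) to 1 (stable); wild type and das1Δ backgrounds, two technical replicates each.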

[1] = genetic background: das1 deletion

Sequence	protein stability index [1]	protein stability index (genetic background: wild type)
IVKIIRFNHASV [YHL048C-A C-terminal 12 aa]	0.685 ± 0.016	0.658 ± 0.034
TAIVAVVALLLL [DAN4 C-terminal 12 aa]	0.343 ± 0.0084	0.353 ± 0.0092
GDLVNAIMSLSK [EGD2 C-terminal 12 aa]	0.696 ± 0.013	0.696 ± 0.025
EANNLLNIIKGN [MRP51 C-terminal 12 aa]	0.6795 ± 0.0042	0.294 ± 0.035
QFKQILENYRPT [VPS38 C-terminal 12 aa]	0.664 ± 0.0088	0.7348 ± 0.0013
LPQSTLQENQLS [SKN7 C-terminal 12 aa]	0.706 ± 0.024	0.622 ± 0.028
QELISLIDVINQ [RNH203 C-terminal 12 aa]	0.7225 ± 0.005	0.739 ± 0.035
IHSGYTNISYTI [MCM16 C-terminal 12 aa]	0.709 ± 0.0077	0.7012 ± 0.0067
CYTEEEWSKIVV [BOL2 C-terminal 12 aa]	0.7072 ± 0.003	0.717 ± 0.019
EGIFPANYVRVS [YSC84 C-terminal 12 aa]	0.663 ± 0.01	0.673 ± 0.0097
ATLINILLELFS [ECM27 C-terminal 12 aa]	0.632 ± 0.014	0.63 ± 0.018
SLFPRDPKRLRP [DPS1 C-terminal 12 aa]	0.7133 ± 0.0054	0.6987 ± 0.0031
DFIKNPNDYFKQ [BEM2 C-terminal 12 aa]	0.73319 ± 0.00064	0.729 ± 0.1
LISEFQKKQAKK [MEF1 C-terminal 12 aa]	0.7194 ± 0.0033	0.691 ± 0.038
KERTHLFQLIRK [EFM6 C-terminal 12 aa]	0.699 ± 0.0076	0.6923 ± 0.0018
TRRVAARKGKLS [UTR5 C-terminal 12 aa]	0.686 ± 0.0091	0.32 ± 0.014
FENGGKLKEVDK [MDM35 C-terminal 12 aa]	0.686 ± 0.01	0.7211 ± 0.0027
LKRVVTKAMSSR [SSB1 C-terminal 12 aa]	0.714 ± 0.012	0.6864 ± 0.0039
YPGEAKRPQERF [COX10 C-terminal 12 aa]	0.6898 ± 0.0058	0.7 ± 0.047
ADWKAQRGEDGK [PNG1 C-terminal 12 aa]	0.67376 ± 7.2e-05	0.703 ± 0.014
WLSKSGSSAALP [TOS1 C-terminal 12 aa]	0.717 ± 0.014	0.685 ± 0.022

Sequence	protein stability index [1]	protein stability index (genetic background: wild type)
EMEKNKLKRKRN [YNG2 C-terminal 12 aa]	0.668 ± 0.054	0.699 ± 0.014
EATYKVLQQLHK [ADE8 C-terminal 12 aa]	0.71 ± 0.012	0.7224 ± 0.00099
RQRRLQAAGRWF [PCP1 C-terminal 12 aa]	0.716 ± 0.014	0.6854 ± 0.0044
LLDAIELYQRHK [HEM4 C-terminal 12 aa]	0.698 ± 0.017	0.6704 ± 0.0026
IHYKMNENSTNQ [SYO1 C-terminal 12 aa]	0.689 ± 0.0075	0.68 ± 0.04
SPAHSFEKIQKI [ERF2 C-terminal 12 aa]	0.692 ± 0.015	0.688 ± 0.029
FIAQAEAEAETD [GRS1 C-terminal 12 aa]	0.688 ± 0.014	0.669 ± 0.017
RDGQKTSLIRLI [YBR259W C-terminal 12 aa]	0.711 ± 0.035	0.57 ± 0.11
KRAENNAQKKTN [ERG25 C-terminal 12 aa]	0.689 ± 0.019	0.495 ± 0.0083
VKQMRKKKDKGD [MSB3 C-terminal 12 aa]	0.688 ± 0.0093	0.691 ± 0.042
NNYNLWFRLSSS [ECL1 C-terminal 12 aa]	0.702 ± 0.027	0.668 ± 0.055
LDDTPAPTATNL [NUD1 C-terminal 12 aa]	0.6857 ± 0.0035	0.701 ± 0.034
FFTKLFKKKSSR [MSC3 C-terminal 12 aa]	0.705 ± 0.02	0.6832 ± 0.0021
TVNYLHRLLETD [ISN1 C-terminal 12 aa]	0.73 ± 0.009	0.721 ± 0.039
TGLLRGSQKTQD [RPL2A C-terminal 12 aa]	0.7017 ± 0.0061	0.672 ± 0.0086
DEEEEIEPEVKA [SBA1 C-terminal 12 aa]	0.678 ± 0.017	0.685 ± 0.027
KQRFLLCWSTKL [YHR131W-A C-terminal 12 aa]	0.693 ± 0.034	0.55 ± 0.04
IMALIAESGDDF [ERV14 C-terminal 12 aa]	0.673 ± 0.021	0.7007 ± 0.0027
ISTAPEQMMFLP [MSG5 C-terminal 12 aa]	0.7169 ± 0.0058	0.7155 ± 0.0068
CMESNPPVFMAI [YNL296W C-terminal 12 aa]	0.709 ± 0.035	0.713 ± 0.021
IGIGTHDLHFGS [YHR052W-A C-terminal 12 aa]	0.728 ± 0.033	0.7123 ± 0.0016

Sequence	protein stability index [1]	protein stability index (genetic background: wild type)
PLMFHCTRWEVD [GEP5 C-terminal 12 aa]	0.6911 ± 0.0033	0.741 ± 0.064
RYRLSQRQESKK [MRX4 C-terminal 12 aa]	0.698 ± 0.011	0.682 ± 0.021
ANRQCYVNGTKT [YDR250C C-terminal 12 aa]	0.663 ± 0.0094	0.69065 ± 0.00059
PFYRTSAESIDF [SLM5 C-terminal 12 aa]	0.719 ± 0.022	0.706 ± 0.034
VPYAKILDQCIL [YGL230C C-terminal 12 aa]	0.693 ± 0.027	0.721 ± 0.021
RLAKKVARRNAD [RPS24A C-terminal 12 aa]	0.693 ± 0.0097	0.683 ± 0.024
MKSKKIDIKGQK [THP3 C-terminal 12 aa]	0.705 ± 0.03	0.665 ± 0.018
GFQATVGKRRRM [SUI3 C-terminal 12 aa]	0.699 ± 0.019	0.703 ± 0.0081
KGATIKEIVLND [ATH1 C-terminal 12 aa]	0.69826 ± 0.00054	0.672 ± 0.012
AQQNYRLWLSSF [ICY1 C-terminal 12 aa]	0.7166 ± 0.0069	0.6246 ± 0.0033
VKIATSILGKKL [PGS1 C-terminal 12 aa]	0.68478 ± 0.00021	0.687 ± 0.025
ISLWYKHNRVKG [YPR077C C-terminal 12 aa]	0.677 ± 0.017	0.5619 ± 0.0045
KHKNILSFNDNT [YER188C-A C-terminal 12 aa]	0.731 ± 0.015	0.747 ± 0.068
LADLRVYLRVPG [YGL088W C-terminal 12 aa]	0.565 ± 0.021	0.568 ± 0.013
RSHKCYPHDVRF [NAT3 C-terminal 12 aa]	0.7614 ± 0.0011	0.662 ± 0.024
SVLQRRQSTQNS [HAL1 C-terminal 12 aa]	0.719 ± 0.0076	0.691 ± 0.06
EHRNIEWEKKTA [POL4 C-terminal 12 aa]	0.7 ± 0.014	0.694 ± 0.054
TPLLLGNKGKPQ [YBL094C C-terminal 12 aa]	0.687 ± 0.019	0.696 ± 0.043
QQYFQEPQQGQY [MCM1 C-terminal 12 aa]	0.676 ± 0.0068	0.703 ± 0.077

From the supplement of paper PMC10724198
